The target in data set [1] is T1, SARS-CoV nsp9 (SARS-CoV), P0C6X7.
T1 chain: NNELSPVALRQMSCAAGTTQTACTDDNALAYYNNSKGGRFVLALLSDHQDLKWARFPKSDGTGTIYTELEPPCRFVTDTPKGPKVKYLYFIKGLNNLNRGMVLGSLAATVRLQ
As to the kind of experiment: native MS. The note with it: remark: other sources report otherwise.

The data set “native MS” concerns the molecule itself. As to the kind of experiment: native MS.

Usually stoichiometry N stands for the number of molecules, sites or subunits per partner or assembly.

B1: SARS-CoV nsp9, P0C6X7 (natural protein)
chain: NNELSPVALRQMSCAAGTTQTACTDDNALAYYNNSKGGRFVLALLSDHQDLKWARFPKSDGTGTIYTELEPPCRFVTDTPKGPKVKYLYFIKGLNNLNRGMVLGSLAATVRLQ
In the case of B1, in data set [1], the mass fraction of dimers is 25%, the mass fraction of monomers was 75% and the stoichiometry N was 2.

B2: SARS-CoV main protease M^pro with authentic ends (enzyme)
chain: SGFRKMAFPSGKVEGCMVQVTCGTTTLNGLWLDDTVYCPRHVICTAEDMLNPNYEDLLIRKSNHSFLVQAGNVQLRVIGHSMQNCLLRLKVDTSNPKTPKYKFVRIQPGQTFSVLACYNGSPSGVYQCAMRPNHTIKGSFLNGSCGSVGFNIDYDCVSFCYMHHMELPTGVHAGTDLEGKFYGPFVDRQTAQAAGTDTTITLNVLAWLYAAVINGDRWFLNRFTTTLNDFNLVAMKYNYEPLTQDHVDILGPLSAQTGIAVLDMCAALKELLQNGMNGRTILGSTILEDEFTPFDVVRQCSGVTFQ
notes: also called 3CL^pro; nsp5
Consider B2, for which the “stoichiometry N” value in the data set “native MS” worked out at 2.

These data come from PMC7078746, “Processing of the SARS-CoV pp1a/ab nsp7–10 region” (Biochemical Journal, 2020).
